Source: US20090239795A1

Biological target: rat GLP-1 receptor (rat) (UniProt P32301)
Assay: cell-based or functional assay

Potency (nM), cAMP accumulation in CHO-GLP-1R cells [nM] | Substance
1.3 | GLP-1(7-37,A8G,K34A) (PEAPTD)2 (SEQ ID NO: 5) mTf fusion protein (from UniProt P01275 98-128) (ligand)
0.85 | Exendin-4(1-30) (PEAPTD)2 mTf fusion protein (ligand)
0.33 | Exendin-4(1-31) (PEAPTD)2 mTf fusion protein (ligand)
